These results are taken from paper PMC5686756, “IKKγ-Mimetic Peptides Block the Resistance to Apoptosis Associated with Kaposi's Sarcoma-Associated Herpesvirus Infection” (Journal of Virology, 2017).

This assay has as its target ks-vFLIP (purified, thermofluor assay) (Kaposi's sarcoma-associated herpesvirus (KSHV)) (UniProt Q76RF1). Briefly: thermofluor (thermal shift); 30 μM ks-vFLIP combined with IKKγ or mimetic peptides, SYPRO orange 1:1,000, 96-well plate, thermal denaturation. In general terms: In DSF a fluorescence change marks the thermal transition of the protein.

unmodified IKKγ 30-mer peptide (residues 224 to 253), sequence (Q9Y6K9 224-253): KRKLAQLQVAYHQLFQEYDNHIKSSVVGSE
IKKγ fragment encompassing residues 150 to 272, sequence (Q9Y6K9 150-272): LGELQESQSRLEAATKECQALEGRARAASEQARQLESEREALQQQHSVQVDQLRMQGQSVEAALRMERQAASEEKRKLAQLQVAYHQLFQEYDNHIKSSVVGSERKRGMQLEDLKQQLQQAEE

Regarding “IKKγ fragment encompassing residues 150 to 272 (from UniProt Q9Y6K9 150-272) (domain or fragment)”, the shift in melting temperature at 30 μM turned out to be 8 °C.

With “unmodified IKKγ 21-mer peptide (residues 226 to 248) (from UniProt Q9Y6K9 226-248)”, the shift in melting temperature at 100 μM came out at 4 °C.

As to “unmodified IKKγ 30-mer peptide (residues 224 to 253) (from UniProt Q9Y6K9 224-253)”, the shift in melting temperature at 100 μM came to 4 °C.
